Data taken from patent US20090170763A1 (KENJI KANGAWA, published 2009).
Square brackets hold non-standard residues; d marks the D form. Ends that are not written are not given here. * marks the point of attachment. Trt = c1ccc(C(c2ccccc2)(c2ccccc2)*)cc1; Octanoyl = CCCCCCCC(=O)*; Aib = CC(C)(N)C(=O)O; Octyl = CCCCCCCC*

B1: [Nle^3]-hGhrelin (peptide)
peptide: GSXFLSPEHQRVQQRKESKKPPAKLQPR
modifications: position 3 (X) is norleucine (Nle)
B2: [His^2]-Ghrelin (1-7)-amide (peptide)
peptide: GHS(Octanoyl)FLSP-NH2
modifications: N-terminus assumed
SMILES: CCCCCCCC(=O)OC[C@H](NC(=O)[C@H](Cc1c[nH]cn1)NC(=O)CN)C(=O)N[C@@H](Cc1ccccc1)C(=O)N[C@@H](CC(C)C)C(=O)N[C@@H](CO)C(=O)N1CCC[C@H]1C(N)=O
B3: [Lys^2]-Ghrelin (1-7)-amide (peptide)
peptide: GKS(Octanoyl)FLSP-NH2
modifications: N-terminus assumed
SMILES: CCCCCCCC(=O)OC[C@H](NC(=O)[C@H](CCCCN)NC(=O)CN)C(=O)N[C@@H](Cc1ccccc1)C(=O)N[C@@H](CC(C)C)C(=O)N[C@@H](CO)C(=O)N1CCC[C@H]1C(N)=O
B4: [Cha^3]-hGhrelin (peptide)
peptide: GSXFLSPEHQRVQQRKESKKPPAKLQPR
modifications: position 3 (X) is cyclohexylalanine (Cha)
B5: [N-Glycyl]-Ghrelin (3-7)-amide (peptide)
peptide: GS(Octanoyl)FLSP-NH2
modifications: N-terminus assumed
SMILES: CCCCCCCC(=O)OC[C@H](NC(=O)CN)C(=O)N[C@@H](Cc1ccccc1)C(=O)N[C@@H](CC(C)C)C(=O)N[C@@H](CO)C(=O)N1CCC[C@H]1C(N)=O
B6: [Cys^3(Octyl)]-Ghrelin (1-7)-amide (peptide)
peptide: GSC(Octyl)FLSP-NH2
modifications: N-terminus assumed
SMILES: CCCCCCCCSC[C@H](NC(=O)[C@H](CO)NC(=O)CN)C(=O)N[C@@H](Cc1ccccc1)C(=O)N[C@@H](CC(C)C)C(=O)N[C@@H](CO)C(=O)N1CCC[C@H]1C(N)=O
B7: [Lys^7]-Ghrelin (1-7)-amide (peptide)
peptide: GSS(Octanoyl)FLSK-NH2
modifications: N-terminus assumed
SMILES: CCCCCCCC(=O)OC[C@H](NC(=O)[C@H](CO)NC(=O)CN)C(=O)N[C@@H](Cc1ccccc1)C(=O)N[C@@H](CC(C)C)C(=O)N[C@@H](CO)C(=O)N[C@@H](CCCCN)C(N)=O
B8: [Dap^3(Octanoyl)]-hGhrelin (peptide)
peptide: GSXFLSPEHQRVQQRKESKKPPAKLQPR
modifications: position 3 (X) is L-2,3-diaminopropionic acid (Dap) with N-octanoyl side chain (CH2NHCO-C7H15)
B9: [Lys^6]-Ghrelin (1-6)-amide (peptide)
peptide: GSS(Octanoyl)FLK-NH2
modifications: N-terminus assumed
SMILES: CCCCCCCC(=O)OC[C@H](NC(=O)[C@H](CO)NC(=O)CN)C(=O)N[C@@H](Cc1ccccc1)C(=O)N[C@@H](CC(C)C)C(=O)N[C@@H](CCCCN)C(N)=O
B10: [Gly^2]-Ghrelin (1-7)-amide (peptide)
peptide: GGS(Octanoyl)FLSP-NH2
modifications: N-terminus assumed
SMILES: CCCCCCCC(=O)OC[C@H](NC(=O)CNC(=O)CN)C(=O)N[C@@H](Cc1ccccc1)C(=O)N[C@@H](CC(C)C)C(=O)N[C@@H](CO)C(=O)N1CCC[C@H]1C(N)=O
B11: [2-^LNal^3]-hGhrelin (peptide)
peptide: GSXFLSPEHQRVQQRKESKKPPAKLQPR
modifications: position 3 (X) is 2-L-naphthylalanine (Nal)
B12: [Cys^3(Trityl)]-hGhrelin (peptide)
peptide: GSC(Trt)FLSPEHQRVQQRKESKKPPAKLQPR
B13: [Aib^1,His^2,^DSer^3(Octyl),^DPhe^4,Lys^5]-Ghrelin (1-5)-amide (peptide)
peptide: [Aib]H[dS](Octyl)[dF]K-NH2
modifications: N-terminus assumed
SMILES: CCCCCCCCOC[C@@H](NC(=O)[C@H](Cc1c[nH]cn1)NC(=O)C(C)(C)N)C(=O)N[C@H](Cc1ccccc1)C(=O)N[C@@H](CCCCN)C(N)=O
B14: [Adod^3]-hGhrelin (peptide)
peptide: GSXFLSPEHQRVQQRKESKKPPAKLQPR
modifications: position 3 (X) is 2-aminododecanoic acid (Adod; side chain n-C10H21)
B15: [Asp^3(O-Heptyl)]-hGhrelin (peptide)
peptide: GSDFLSPEHQRVQQRKESKKPPAKLQPR
modifications: Asp 3 side-chain heptyl ester (O-C7H15)
B16: [^DPhe^4,Lys^5]-Ghrelin (1-5)-amide (peptide)
peptide: GSS(Octanoyl)[dF]K-NH2
modifications: N-terminus assumed
SMILES: CCCCCCCC(=O)OC[C@H](NC(=O)[C@H](CO)NC(=O)CN)C(=O)N[C@H](Cc1ccccc1)C(=O)N[C@@H](CCCCN)C(N)=O
B17: [Cys^3(Octyl),^DPhe^4]-Ghrelin (1-7)-amide (peptide)
peptide: GSC(Octyl)[dF]LSP-NH2
modifications: N-terminus assumed
SMILES: CCCCCCCCSC[C@H](NC(=O)[C@H](CO)NC(=O)CN)C(=O)N[C@H](Cc1ccccc1)C(=O)N[C@@H](CC(C)C)C(=O)N[C@@H](CO)C(=O)N1CCC[C@H]1C(N)=O
B18: [Cys^3(S-Heptyl)]-hGhrelin (peptide)
peptide: GSC(S‑heptyl)FLSPEHQRVQQRKESKKPPAKLQPR
B19: [N-Tyr]-rGhrelin (peptide)
peptide: YGSS(Octanoyl)FLSPEHQKAQQRKESKKPPAKLQPR
B20: [Arg^8]-Ghrelin (1-8)-amide (peptide)
peptide: GSS(Octanoyl)FLSPR-NH2
modifications: N-terminus assumed
SMILES: CCCCCCCC(=O)OC[C@H](NC(=O)[C@H](CO)NC(=O)CN)C(=O)N[C@@H](Cc1ccccc1)C(=O)N[C@@H](CC(C)C)C(=O)N[C@@H](CO)C(=O)N1CCC[C@H]1C(=O)N[C@@H](CCCNC(=N)N)C(N)=O
B21: [Lys^5]-Ghrelin (1-5)-amide (peptide)
peptide: GSS(Octanoyl)FK-NH2
modifications: N-terminus assumed
SMILES: CCCCCCCC(=O)OC[C@H](NC(=O)[C@H](CO)NC(=O)CN)C(=O)N[C@@H](Cc1ccccc1)C(=O)N[C@@H](CCCCN)C(N)=O
B22: [Lys^8]-Ghrelin (1-8)-amide (peptide)
peptide: GSS(Octanoyl)FLSPK-NH2
modifications: N-terminus assumed
SMILES: CCCCCCCC(=O)OC[C@H](NC(=O)[C@H](CO)NC(=O)CN)C(=O)N[C@@H](Cc1ccccc1)C(=O)N[C@@H](CC(C)C)C(=O)N[C@@H](CO)C(=O)N1CCC[C@H]1C(=O)N[C@@H](CCCCN)C(N)=O
B23: [Cys^3(Octyl)]-rGhrelin (peptide)
peptide: GSC(Octyl)FLSPEHQKAQQRKESKKPPAKLQPR
B24: [Thr^3(Octanoyl)]-hGhrelin (peptide)
peptide: GST(Octanoyl)FLSPEHQRVQQRKESKKPPAKLQPR
B25: [Aib^1,His^2,Ser^3(Octyl),Lys^5]-Ghrelin (1-5)-amide (peptide)
peptide: [Aib]HS(Octyl)FK-NH2
modifications: N-terminus assumed
SMILES: CCCCCCCCOC[C@H](NC(=O)[C@H](Cc1c[nH]cn1)NC(=O)C(C)(C)N)C(=O)N[C@@H](Cc1ccccc1)C(=O)N[C@@H](CCCCN)C(N)=O
B26: [2-^DNal^3]-hGhrelin (peptide)
peptide: GSXFLSPEHQRVQQRKESKKPPAKLQPR
modifications: position 3 (X) is 2-D-naphthylalanine (D-Nal)
B27: [Asp^3(NH-Heptyl)]-hGhrelin (peptide)
peptide: GSDFLSPEHQRVQQRKESKKPPAKLQPR
modifications: Asp 3 side-chain heptylamide (NH-C7H15)

Target: rat GHS-R (GHS receptor) expressed on CHO-GHSR62 cells (rat) (UniProt O08725)
Sequence (O08725 whole entry): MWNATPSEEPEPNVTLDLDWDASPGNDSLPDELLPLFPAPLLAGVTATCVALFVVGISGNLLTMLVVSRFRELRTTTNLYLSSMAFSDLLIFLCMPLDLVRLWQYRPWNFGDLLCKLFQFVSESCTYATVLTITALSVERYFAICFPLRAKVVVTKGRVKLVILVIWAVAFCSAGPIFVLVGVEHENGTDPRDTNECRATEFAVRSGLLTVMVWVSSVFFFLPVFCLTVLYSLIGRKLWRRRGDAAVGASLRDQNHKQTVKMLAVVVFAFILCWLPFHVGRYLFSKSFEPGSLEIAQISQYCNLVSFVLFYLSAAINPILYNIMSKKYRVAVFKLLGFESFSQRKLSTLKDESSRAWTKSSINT
Assay: cell-based or functional assay

Activity EC50 [nM]	Ca-releasing activity EC50 [nM]	EC50 value [nM]	Binder
2800	–	–	B1
–	35	–	B2
–	24	–	B3
19	–	–	B4
–	380	–	B5
–	7.4	–	B6
11	–	–	B7
2.6	–	–	B8
–	12	–	B9
–	78	–	B10
8.2	–	8.2	B11
20	–	–	B12
38	–	–	B13
0.91	–	–	B14
5.1	–	–	B15
–	1700	–	B16
–	3000	–	B17
1.4	–	–	B18
–	120	–	B19
–	1.1	–	B20
–	10	–	B21
–	1.1	–	B22
–	5.4	5.4	B23
10	–	–	B24
34	–	–	B25
> 10000	–	–	B26
11	–	–	B27
